Target: T1, human LDL (Low Density Lipoprotein) receptor (human, UniProt P01130 22-860)
T1 construct: whole, on cells; Endogenous receptor on human A549 and MDA-MB-231 cells (flow cytometry); also called LDL-R; human LDL-R
Assay: Western blot of total protein extracts of MDA-MB-231 cells

T1 sequence (P01130 22-860): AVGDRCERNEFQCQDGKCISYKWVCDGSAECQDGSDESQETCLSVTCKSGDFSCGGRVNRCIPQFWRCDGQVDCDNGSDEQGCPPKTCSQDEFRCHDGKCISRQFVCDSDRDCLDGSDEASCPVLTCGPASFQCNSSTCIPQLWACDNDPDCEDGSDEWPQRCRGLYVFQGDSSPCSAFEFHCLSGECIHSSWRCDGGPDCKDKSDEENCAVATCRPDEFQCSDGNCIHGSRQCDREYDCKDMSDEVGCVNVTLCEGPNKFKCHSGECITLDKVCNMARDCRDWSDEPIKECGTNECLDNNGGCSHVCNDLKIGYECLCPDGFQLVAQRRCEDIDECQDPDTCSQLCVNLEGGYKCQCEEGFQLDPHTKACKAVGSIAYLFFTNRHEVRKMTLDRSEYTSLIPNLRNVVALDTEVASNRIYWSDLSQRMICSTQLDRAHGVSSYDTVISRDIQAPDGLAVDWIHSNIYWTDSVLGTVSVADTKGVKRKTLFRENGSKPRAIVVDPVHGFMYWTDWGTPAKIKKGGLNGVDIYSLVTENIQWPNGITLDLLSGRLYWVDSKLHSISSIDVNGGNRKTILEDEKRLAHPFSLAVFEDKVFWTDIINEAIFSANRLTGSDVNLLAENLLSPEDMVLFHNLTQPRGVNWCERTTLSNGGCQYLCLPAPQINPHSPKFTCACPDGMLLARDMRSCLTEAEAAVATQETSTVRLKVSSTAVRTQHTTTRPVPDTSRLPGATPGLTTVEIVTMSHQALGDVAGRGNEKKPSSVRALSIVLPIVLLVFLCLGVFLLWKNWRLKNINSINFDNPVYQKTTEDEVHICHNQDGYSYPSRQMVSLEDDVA

- binding result: binds
B1: Anti-LDL-R 5E5 monoclonal antibody produced by the hybridoma H5E5 (CNCM I-3488) (antibody, V domains shown)
VH: QVQLQQSGPELVRPGVSVKISCKGSGYTFTDYAMHWVKQSHAQSLEWIGFISTYSGNTNYNQKFKGRATMTVDKSSSTAYMELARLTSEDSAIYYCARPNYYGSSPGGFAYWGQGTLVTVSA
VL: ENVLTQSPAIMSASLGEKVTMSCRARSSVNYMYWYQQKSDASPKLWIYYTSNLAPGVPARFSGSGSGNSYSLTISSMEGEDAATYYCQQFTSSPSFGGGTKLEIK
notes: also called anti-LDL-R 5E5 antibodies; murine antibody 5E5
